In series [1] the target is ORCA-1 (Catharanthus roseus). The series is described as follows: cell_activity; within Str1 BH promoter, GUS/CAT, C. roseus cells.
Series [2] addresses ORCA-2 (Catharanthus roseus). The description is as above.

Chain of ORCA-2 (Catharanthus roseus) (chain, as listed by the source): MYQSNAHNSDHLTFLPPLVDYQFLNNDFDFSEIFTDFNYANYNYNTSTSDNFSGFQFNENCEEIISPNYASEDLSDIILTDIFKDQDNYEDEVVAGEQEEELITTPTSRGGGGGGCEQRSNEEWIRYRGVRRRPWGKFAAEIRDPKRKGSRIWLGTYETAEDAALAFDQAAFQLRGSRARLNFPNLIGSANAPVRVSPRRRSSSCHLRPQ
Chain of ORCA-1 (Catharanthus roseus) (chain, as listed by the source): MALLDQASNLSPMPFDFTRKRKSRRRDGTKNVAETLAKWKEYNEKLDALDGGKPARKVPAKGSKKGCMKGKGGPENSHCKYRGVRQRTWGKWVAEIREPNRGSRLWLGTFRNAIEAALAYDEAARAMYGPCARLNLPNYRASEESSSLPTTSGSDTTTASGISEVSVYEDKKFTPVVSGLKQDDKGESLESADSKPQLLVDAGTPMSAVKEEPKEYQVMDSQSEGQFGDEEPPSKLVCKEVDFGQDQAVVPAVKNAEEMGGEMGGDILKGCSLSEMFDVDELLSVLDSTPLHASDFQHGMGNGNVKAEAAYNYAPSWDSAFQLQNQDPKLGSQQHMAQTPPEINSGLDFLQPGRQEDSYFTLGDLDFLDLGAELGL

B1: RV region of Str1 promoter (dsDNA)
DNA 1: GTACATCACTCTTAGACCGCCTTCTTTGAAAGTGATTTCCCTTGGACC
DNA 2: GGTCCAAGGGAAATCACTTTCAAAGAAGGCGGTCTAAGAGTGATGTAC
On to B1, for which the activity was found to be 1.6 fold induction in series [1] and 3.3 fold induction in series [2].

The values above are taken from US7393946, “Method of modulating metabolite biosynthesis in recombinant cells” (Rijksuniversiteit Leiden).
